The record followed here is publication PMC8790125, “Molecular Mechanism of SARS-CoVs Orf6 Targeting the Rae1–Nup98 Complex to Compete With mRNA Nuclear Export”.

The target in this series is Rae1;Nup98 GLEBS (human;human, UniProt P78406;P52948-3 1-368;157-213, |). As to the kind of experiment: ITC. The settings on record: protein: recombinant;recombinant; tags: His tag on the complex (HisTrap); copies: 1;1.
Chain of Rae1;Nup98 GLEBS (P78406 whole entry, chain 1 of 2): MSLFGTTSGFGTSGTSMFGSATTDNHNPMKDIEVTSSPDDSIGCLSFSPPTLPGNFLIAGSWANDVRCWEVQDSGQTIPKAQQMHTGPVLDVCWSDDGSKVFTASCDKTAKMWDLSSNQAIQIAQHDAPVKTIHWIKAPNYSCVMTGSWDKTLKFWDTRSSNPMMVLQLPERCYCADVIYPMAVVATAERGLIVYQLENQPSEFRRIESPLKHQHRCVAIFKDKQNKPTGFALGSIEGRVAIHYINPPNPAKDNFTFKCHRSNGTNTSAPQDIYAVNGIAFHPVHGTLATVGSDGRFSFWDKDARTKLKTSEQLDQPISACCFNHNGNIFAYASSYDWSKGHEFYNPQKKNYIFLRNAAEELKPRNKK
Chain of Rae1;Nup98 GLEBS (P52948 157-213, chain 2 of 2): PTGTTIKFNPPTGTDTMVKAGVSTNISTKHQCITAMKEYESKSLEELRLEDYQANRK

For UUUUUUUUUUUUUU (ssRNA) [14-mer poly(U) ssRNA], the binding result is reported as “binds”.
